Source: patent US20040213780A1 (GENERAL HOSPITAL, published 2004)

Target: T1, mutant full-length huntingtin with 75 glutamines (HttQ75) (UniProt P42858 1-3142)
T1 construct: domain: full-length; In the yeast two-hybrid assay expressed as prey fusion from vector pJG4-5 (hemagglutinin tag); also called mutant huntingtin
Test: yeast two-hybrid, huntingtin prey against TAFII130 bait
Description: All the constructs were verified by DNA sequencing for correct reading frame and orientation. All assays were performed in triplicates and protein expression verified by Western blotting using standard procedures. The ability of the LexA fusion to bind operator was confirmed by a repression assay. The two-hybrid screen assays were performed as described (D. Krainc et al., J. Biol. Chem. 273:26218, 1998).
Because NH₂-terminal fragments of mutant huntingtin can effectively induce cell death in both in vivo and in vitro models (L. Mangiarini, et al., Cell 87:493, 1996; J. K. Copper, et al., Hum. Mol. Genet. 7:783, 1998; D. Martindale, et al., Nature Genet. 18:150, 1998; S. H. Li and X. Y. Li, Hum. Mol. Genet. 7:777, 1998), we examined the interactions of Sp1 and TAFII130 with the 480-amino acid NH₂-terminal fragment of huntingtin. […] FIG. 1 illustrates that Huntingtin interacted with Sp1 and TAFII130 in vitro and in human HD brain tissue. FIG. 1A illustrates results of yeast two-hybrid experiments, as described above herein, performed with full-length (HttQ17 and HttQ75) or truncated huntingtin constructs (Htt480Q17 and Htt480Q68) as prey against bait plasmids containing full-length Sp1 or Sp1 lacking the DNA binding domain (Sp1AB, amino acids 83 through 621).

T1 sequence (P42858 other isoform, or with tags, fused parts or gaps mutant limits assumed): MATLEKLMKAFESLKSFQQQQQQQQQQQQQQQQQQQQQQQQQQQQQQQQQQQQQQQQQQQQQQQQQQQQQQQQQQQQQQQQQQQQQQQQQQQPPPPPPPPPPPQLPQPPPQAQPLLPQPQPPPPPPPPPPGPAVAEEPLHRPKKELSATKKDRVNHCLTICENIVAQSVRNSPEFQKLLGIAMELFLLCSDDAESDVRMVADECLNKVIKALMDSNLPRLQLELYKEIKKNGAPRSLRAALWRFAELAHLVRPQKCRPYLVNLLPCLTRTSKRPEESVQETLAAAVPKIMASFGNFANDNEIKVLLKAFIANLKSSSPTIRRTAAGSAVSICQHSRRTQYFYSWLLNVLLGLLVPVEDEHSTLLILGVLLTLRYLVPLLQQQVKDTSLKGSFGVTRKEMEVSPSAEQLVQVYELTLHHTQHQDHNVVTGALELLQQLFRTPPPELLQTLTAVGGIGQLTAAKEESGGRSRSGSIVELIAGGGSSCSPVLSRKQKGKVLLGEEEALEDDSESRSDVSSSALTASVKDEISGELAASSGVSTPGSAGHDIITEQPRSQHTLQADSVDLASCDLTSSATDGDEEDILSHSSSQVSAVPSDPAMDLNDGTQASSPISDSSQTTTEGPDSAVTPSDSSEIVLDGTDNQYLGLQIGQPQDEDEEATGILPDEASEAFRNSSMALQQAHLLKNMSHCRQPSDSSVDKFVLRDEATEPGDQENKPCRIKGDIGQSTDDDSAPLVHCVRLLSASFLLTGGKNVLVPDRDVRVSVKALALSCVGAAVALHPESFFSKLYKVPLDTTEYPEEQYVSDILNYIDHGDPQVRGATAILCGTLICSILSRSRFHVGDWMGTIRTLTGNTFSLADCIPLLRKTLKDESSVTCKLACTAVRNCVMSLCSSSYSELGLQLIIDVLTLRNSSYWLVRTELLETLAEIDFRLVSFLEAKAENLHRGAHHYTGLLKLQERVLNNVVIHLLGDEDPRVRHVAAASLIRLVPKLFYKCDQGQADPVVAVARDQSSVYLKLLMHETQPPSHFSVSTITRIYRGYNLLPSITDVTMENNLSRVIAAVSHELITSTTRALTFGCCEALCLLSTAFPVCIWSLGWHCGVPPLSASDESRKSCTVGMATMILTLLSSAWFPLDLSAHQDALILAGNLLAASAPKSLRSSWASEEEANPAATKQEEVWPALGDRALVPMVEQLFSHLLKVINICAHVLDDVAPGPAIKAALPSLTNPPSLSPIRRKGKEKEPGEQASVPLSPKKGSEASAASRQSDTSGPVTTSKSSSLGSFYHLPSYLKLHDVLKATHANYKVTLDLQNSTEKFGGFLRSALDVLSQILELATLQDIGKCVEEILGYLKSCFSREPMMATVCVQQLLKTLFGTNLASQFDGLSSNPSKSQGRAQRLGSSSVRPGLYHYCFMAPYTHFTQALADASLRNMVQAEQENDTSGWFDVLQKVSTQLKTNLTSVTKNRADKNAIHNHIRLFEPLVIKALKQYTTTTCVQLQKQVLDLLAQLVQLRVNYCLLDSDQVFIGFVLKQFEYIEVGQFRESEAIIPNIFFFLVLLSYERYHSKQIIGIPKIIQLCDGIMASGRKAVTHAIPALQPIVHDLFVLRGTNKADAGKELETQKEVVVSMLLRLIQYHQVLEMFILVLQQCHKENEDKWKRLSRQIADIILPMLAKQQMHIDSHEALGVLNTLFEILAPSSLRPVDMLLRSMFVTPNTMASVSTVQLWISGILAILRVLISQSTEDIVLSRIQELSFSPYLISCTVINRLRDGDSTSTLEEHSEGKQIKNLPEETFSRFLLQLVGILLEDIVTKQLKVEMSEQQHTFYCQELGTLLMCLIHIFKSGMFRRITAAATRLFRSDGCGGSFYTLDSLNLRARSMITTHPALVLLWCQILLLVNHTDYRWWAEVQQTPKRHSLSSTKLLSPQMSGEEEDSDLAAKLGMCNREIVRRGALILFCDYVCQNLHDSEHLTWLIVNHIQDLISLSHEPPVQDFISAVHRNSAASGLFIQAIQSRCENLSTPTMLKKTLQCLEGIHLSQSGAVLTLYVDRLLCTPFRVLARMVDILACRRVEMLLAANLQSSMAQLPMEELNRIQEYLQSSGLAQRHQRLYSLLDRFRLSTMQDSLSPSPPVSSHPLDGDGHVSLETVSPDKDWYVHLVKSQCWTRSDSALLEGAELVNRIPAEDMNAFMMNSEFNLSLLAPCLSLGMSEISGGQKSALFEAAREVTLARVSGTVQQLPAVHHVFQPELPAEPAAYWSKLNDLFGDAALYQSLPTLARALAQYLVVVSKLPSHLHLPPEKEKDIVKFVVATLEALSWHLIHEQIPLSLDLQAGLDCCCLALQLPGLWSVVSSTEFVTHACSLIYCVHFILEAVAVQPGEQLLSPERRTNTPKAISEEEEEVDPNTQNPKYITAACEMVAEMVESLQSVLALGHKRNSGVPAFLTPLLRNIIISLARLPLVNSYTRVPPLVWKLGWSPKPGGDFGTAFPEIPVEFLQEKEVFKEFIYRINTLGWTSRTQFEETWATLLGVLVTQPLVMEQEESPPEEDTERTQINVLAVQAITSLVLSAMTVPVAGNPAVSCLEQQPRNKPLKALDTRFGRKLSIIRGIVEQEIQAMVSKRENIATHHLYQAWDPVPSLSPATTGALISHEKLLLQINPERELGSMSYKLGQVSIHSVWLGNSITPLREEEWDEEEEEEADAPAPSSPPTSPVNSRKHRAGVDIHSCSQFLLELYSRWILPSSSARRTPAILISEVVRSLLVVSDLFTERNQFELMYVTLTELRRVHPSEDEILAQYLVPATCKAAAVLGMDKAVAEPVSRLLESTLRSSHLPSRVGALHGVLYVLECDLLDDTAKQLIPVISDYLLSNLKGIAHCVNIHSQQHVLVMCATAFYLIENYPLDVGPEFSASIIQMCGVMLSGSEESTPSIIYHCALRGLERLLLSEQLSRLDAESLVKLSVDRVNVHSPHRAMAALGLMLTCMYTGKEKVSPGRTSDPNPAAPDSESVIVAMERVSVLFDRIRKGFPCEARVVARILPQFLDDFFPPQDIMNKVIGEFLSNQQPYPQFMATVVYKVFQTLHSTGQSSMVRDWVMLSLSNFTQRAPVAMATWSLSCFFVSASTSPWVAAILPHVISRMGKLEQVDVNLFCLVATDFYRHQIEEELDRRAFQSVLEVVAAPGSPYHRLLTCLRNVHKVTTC

binding result: binds
B1: TAFII130 (coactivator), full length (other, UniProt O00268 139-1085, looked up)
chain: PVPAAAAVAAGPEPAPAGPAKPAGPAALAARAGPGPGPGPGPGPGPGPGKPAGPGAAQTLNGSAALLNSHHAAAPAVSLVNNGPAALLPLPKPAAPGTVIQTPPFVGAAAPPAPAAPSPPAAPAPAAPAAAPPPPPPAPATLARPPGHPAGPPTAAPAVPPPAAAQNGGSAGAAPAPAPAAGGPAGVSGQPGPGAAAAAPAPGVKAESPKRVVQAAPPAAQTLAASGPASTAASMVIGPTMQGALPSPAAVPPPAPGTPTGLPKGAAGAVTQSLSRTPTATTSGIRATLTPTVLAPRLPQPPQNPTNIQNFQLPPGMVLVRSENGQLLMIPQQALAQMQAQAHAQPQTTMAPRPATPTSAPPVQISTVQAPGTPIIARQVTPTTIIKQVSQAQTTVQPSATLQRSPGVQPQLVLGGAAQTASLGTATAVQTGTPQRTVPGATTTSSAATETMENVKKCKNFLSTLIKLASSGKQSTETAANVKELVQNLLDGKIEAEDFTSRLYRELNSSPQPYLVPFLKRSLPALRQLTPDSAAFIQQSQQQPPPPTSQATTALTAVVLSSSVQRTAGKTAATVTSALQPPVLSLTQPTQVGVGKQGQPTPLVIQQPPKPGALIRPPQVTLTQTPMVALRQPHNRIMLTTPQQIQLNPLQPVPVVKPAVLPGTKALSAVSAQAAAAQKNKLKEPGGGSFRDDDDINDVASMAGVNLSEESARILATNSELVGTLTRSCKDETFLLQAPLQRRILEIGKKHGITELHPDVVSYVSHATQQRLQNLVEKISETAQQKNFSYKDDDRYEQASDVRAQLKFFEQLDQIEKQRKDEQEREILMRAAKSRSRQEDPEQLRLKQKAKEMQQQELAQMRQRDANLTALAAIGPRKKRKVDCPGPGSGAEGSGPGSVVPGSSGVGTPRQFTRQRITRVNLRDLIFCLENERETSHSLLLYKAFLK
notes: domain: full-length; in striatal neurons overexpressed
